Test results taken from the nanobody polyreactivity screen of Harvey et al. (2022).

Test: yeast display, Sf9 membrane polyspecificity reagent, FACS + sequencing; frameworks hold sequencing errors
How it was run: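 Galactose induction of a Saccharomyces cerevisiae BJ5465 synthetic nanobody display library ran 36–48 hours. The cells were then stained for 1 hour at 4 °C with 10% biotinylated, detergent-solubilized Sf9 membrane reagent, pulled down on streptavidin microbeads and FACS-sorted into low and high (top ~1%) gates on expression and reagent-binding fluorescence. Labels for polyreactivity follow the gate of origin.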

Sequence | polyreactivity (PSR sort gate)
QVQLVESGGGLVQAGGSLRLSSAASGSIFIGYAMGWYRQAPGKARELVAAINDSGDRTYYADSVKGRFTISRDNAKNTVFLQMNSLKREDTAVYYCAADLGSLDPEYDYWGQGTQVTVSS | low polyreactivity
QVQLVESGGGLVQAGGSLRLSSAASGSIFITYAMGWYRQAPGKERELVAAIRDSGDRTYYADSVKGRFTISRDNAKNTVYLQMNSLKPEDTAVYYCNARWQEPLKYDYWGQGTQVTVSS | low polyreactivity
QVQLVESGGGLVQAGGSLRLSSAASGSIFPSYAMGWYIQAPGKETELVAAITTSGGNTFYADSVKGRFTISRDNAKNTVYLQMNSLKPEDTAVYYCAADYSPYTVEYDYWGQGTQVTVSS | low polyreactivity
QVQLVESGGGLVQAGGSLRLSSAASGSIFRGYAMGWYRQAPEKERELVAAISRRGGSTYYADSVKGRFTISRDNAKNTVYLQMNSLKPEDTAVYYCAKDGTGAGTYDYWGLGTQVTVSS | low polyreactivity
QVQLVESGGGLVQAGGSLRLSSAASGSIFSRYAMGWYRQAPGIERELVAAITWSGGSTYYADSVKGRFTISRDNAKNTVYLQMNSLKPEDTAVYYCAAFGYAPYNHRYDYWGQGTQVTVSS | low polyreactivity
QVQLVESGGGLVQAGGSLRLSSAASGSIFVHYAMGWYRQAPGKEREFVAAISRGGGTTYYADSVKGRFTISRDNAKNTVYLQLNCLKPEDNAVYYCNAVRFFEHDYWGQGTQVTVSS | high polyreactivity
QVQLVESGGGLVQAGGSLRLSSAASGSILWQYAMGWYRQAPGKERELVAAITYSGGSTHYADSVKGRFTISRDNAKNTVYLQMNSLKPEDTAVYYCAAGYWSRYAALRYDHWGQGTQVTVSS | low polyreactivity
QVQLVESGGGLVQAGGSLRLSSAASGSILYYNAMGWYRQAPGKERELVAAITSYGGDTYYADSVKGRFTISRDNAKNTVYLQMNSLKPEDSAVYYCAASSHFRPWAYYDDDYDHWGQGTQVTVSS | low polyreactivity
QVQLVESGGGLVQAGGSLRLSSAASGSIQFRNAMRWYRHAPGKERELVAAITVSGGSTYYADSVKGRFTISRDYAKNRVYLQMNSLKPEDNAVYLCAAVYLLRYSQFDYWGQGTQVTESS | low polyreactivity
QVQLVESGGGLVQAGGSLRLSSAASGSISDSYAMGWYRQAPGKERELVAAITSGDSTYYADSVKGRFTISRDNAKNTVYLQMNSLKPEDTAVYFCAKRVSRVRGYVFTDWSEYDYWGQGTQVTVSS | low polyreactivity
QVQLVESGGGLVQAGGSLRLSSAASGSISPQNVMGWYRQEPGKERELVAAITGGGSTNYADSVKGRFTISRDNAKNTVSLQMNSLKPEDTAVYYCNDDYFQDRLDYWGQGTQVTVSS | low polyreactivity
QVQLVESGGGLVQAGGSLRLSSAASGSRNAMGWSRQAPGKEREFVAAITWNGGSTYYADSVKGRFTISRDNAKNTVYLQMNSLKPEDTAVYYCNKREVFIYGTTYDYWGQGTQVTVSS | low polyreactivity
QVQLVESGGGLVQAGGSLRLSSAASGSTFGAYAMGWYRQAPGKERELVAVINSDGSTNYADSVKGRFTISRDNAKNTVYLQMNSLKPEDTAVYFCAKERTSRGGVPRMNYWGQGTQVTVSS | low polyreactivity
QVQLVESGGGLVQAGGSLRLSSAASGSTFRGNAMGWYRQAPGKERELVAAISAIGGSTYYADSVKGRFTISRDNAKNTVYLQMNSLKPEDTAVYYCAARYLYLLGGFNYWGQGTQVTVSS | high polyreactivity
QVQLVESGGGLVQAGGSLRLSSAASGSTFRWYAMGWSRQEPGKEREFVAAITWSGGRTYYADSVKGRFTISRDNAKNTVFLQLNSLKPEDTAVYYCNAYDYGYSFNYWGQGTQVTLSS | high polyreactivity
QVQLVESGGGLVQAGGSLRLSSAASGSTFRYYVMGRYRQAAGKERELVAGISSRGGTTYYADSVKGRFTISRDNAKNTVYLQMNSLKPEDSAVYYCNADTAAAQASYDRLYVLLDYWGQGTQVTVSS | low polyreactivity
QVQLVESGGGLVQAGGSLRLSSAASGSTFTLYAMGWYRQAPGKERELVATITGSGGSTNYADSVKGRFTISRDNAKNTVYLQMNSLKPEDTAVYYCAADYAVYSFTEFNYWGQGTQVTVSS | high polyreactivity
QVQLVESGGGLVQAGGSLRLSSAASGSTFVQNAMGWYRQAPGKERELVAAISRGGTSTYYADSVKGRFTISRDNAKNTVYLQMNSLKPEDTAVYYCAAYTSYLGYPYDYWGQGTQVTVSS | high polyreactivity
QVQLVESGGGLVQAGGSLRLSSAASGSTFWYYAMGWYRQAPGTERELVAGITQSGGSTYYADSVKGRFTISRDNAKNTVYLQMNSLKPEDTAVYYCAKDGRVSGDFDYWGQGTQVTVSS | low polyreactivity
QVQLVESGGGLVQAGGSLRLSSAASGSTIRVYAMGWYRQAPGKERELVATISWGGGRTYYADSVKGRFTISLDNAKNTVYLQMNSLKQEDTSVYYCAADQRWTTDQPTAGDYWGQGTQVTVSS | low polyreactivity
QVQLVESGGGLVQAGGSLRLSSAASGSTYFTYAMGWYRQAPGKERELVAAISWSGGTTYYADSVKGRFTISRDNAKNTVYLQMNSLKPEDTAVYYCASARDGILKANDYWGQGTQVTVSS | low polyreactivity
QVQLVESGGGLVQAGGSLRLSSAASGYTFSRNAMGWYRQAPGKERELVASISSRGGSTRYADSVKGRFTISRDNAKYTVYLQMNSLKPEDTAVYYCAVRGLYSPFTYGYWGQGTQVTVSS | high polyreactivity

Sequence | polyreactivity (PSR sort gate)
QVQLVESGGGLVQAGGSLRLSSAASTYLRLLMLWDGIDRRLGQIGSWLPLLTLVVNSTYYADSVKGRFTISRDNAKNTVYFQMNSLKPEDTAVYYCNVDPYGTYARTHLEYWGQGTQVTVSS | low polyreactivity
QVQLVESGGGLVQAGGSLRLSSADSGRIFNRYAMGSYRQAPGKERELVAAITGSGGRTYYADSVKGRFTISRDNAKNTVYLQMNSLKPEDTAVYYCAATSLIYGYRTYDYWGQGTQVTVSS | high polyreactivity
QVQLVESGGGLVQAGGSLRLSSADSGRIFSYYAMGGYRQAPGKEREFVATITYGGGSTYYADSVKGRFTISRDNAKNTVYLQMNSLKPEDTAVYYCAARGYSYRGWRMDYWGQGSQVTVSS | high polyreactivity
QVQLVESGGGLVQAGGSLRLSSAGSGSTLAYNAMGWYRQAPGKERELVAAISRGTSTYYADSVKGRFTISRDNAKNTVYLQMNSLKPEDTEVYYCAADYVIQYREYDSWGQGTQVTVSS | low polyreactivity
QVQLVESGGGLVQAGGSLRLSSAPSGRTFLSNAMGWYRQAPGKERELVAAITWETDSTYYADSVKGLFTISRDNAKNTVYLQMNSLKPEDTAVYYCAARRYRPFTDYDGRTWWTRDYWGQGTQVTVSS | low polyreactivity
QVQLVESGGGLVQAGGSLRLSSAPSGSIFWGYAMGWYRQAPGKERELVATIRNRGGSTYYADSVKGRFTISRDNAKNTVYFQMNSRKPDDTAVYYCAAVSYRQYYGWGNYWGQGSQVTVSS | low polyreactivity
QVQLVESGGGLVQAGGSLRLSSASSGFTFNSYAMGWYRQAPGKERELVAAIDTGDDITYYADSVKGRFTISRDNAKNTVYLQMNSLKPVDTAVYYCAAKSRRQYTVGLSSDYWGQGTQVTVSS | high polyreactivity
QVQLVESGGGLVQAGGSLRLSSASSGRTLVPYAMGWYRQAPGKERELVAAISSGGYTNYADSVKGRFTISRDNAKNTVYLQMNSLKPEDTAVYYCAADYPVRSYDYWGQGTQVTVSS | low polyreactivity
QVQLVESGGGLVQAGGSLRLSSASSRSTFLLNAMGWYRQEPGKERELVAAITWTGGSTYYADSVKGLFTISRDNANNNVYLQMNSLNQEDTAVYYCAAETYVTSYYYWGQGTQVTVSS | low polyreactivity
QVQLVESGGGLVQAGGSLRLSSDASGNTFVYNAMGWYRQAPGKERKLVAGITKTGGRTYYADSVKGRFTISRDNAKNTVYLQMNSLKPDDTAVYYCAARPWNDGYYVGRFHMDYWGQGTQVTLSS | low polyreactivity
QVQLVESGGGLVQAGGSLRLSSDDSGFTFVSNAMGWYRQAPGKEMELVAVISSGGSTTYADSVKGRFTISRDNAKNTVYLQMNSLKPEDTAVYYCATTNYQDSYEGGDYWGQGTQVTVSS | low polyreactivity
QVQLVESGGGLVQAGGSLRLSSSACGSTFYKNAMGWDRQAPGKERELVAGISRRGGRTYYADSLKGRFTISRDNANNTVYLQMNSLKPVDTADYYCNTGHEEDEYDYWGQGTQVTVSS | low polyreactivity
QVQLVESGGGLVQAGGSLRLSSTASGSTIVAYAMGWYRQAPGKERELVAAITSSGGRTYYADSVKGRFTISRDNAKNSVYLQMNSLKPEDTAVYYCAAVTHGRYDWGQGTQVTVSS | high polyreactivity
QVQLVESGGGLVQAGGSLRLSWAASGFIFAYYAMGWYTPAPGKERELVAAISKRGGSTYYADSVKGRFTISRDNAKNTVYLQMNSLKPEDTAVYYCAADGHGGYGYWGQGTQVTVSS | high polyreactivity
QVQLVESGGGLVQAGGSLRLSWAASGFIFVSNAMGWYRQAPGKERELVAAITSGDNTKYADSVKGRFTISRDNAKNTVYLQMNSLKPEDTAVYYCAVTNRYQGAGYYWGQGTQVTVSS | low polyreactivity
QVQLVESGGGLVQAGGSLRLSWAASGFTFRRNAMGWYRQAPGKEREFVAAITRSGGSTYYADSVKGRFTISRDNAKNTVYVHMNSLKPEDTAVYYCAKERPTDRYPSDEYWGQGTQVTVSS | high polyreactivity
QVQLVESGGGLVQAGGSLRLSWAASGITFATKAMGWYRQAPGKERELVAGITSGGSTYYADSVKGRFTISRDNAKNTVYLQMNSLQPEDTAVYYCANRYHYWYGTGYDYWGQGTQVTVSS | low polyreactivity
QVQLVESGGGLVQAGGSLRLSWAASGITFSRNAMGWYRQAPGKESELVATITSGGSTNYADSVKGRFTISRDHAKNTVYLQMNSLKPEDTAVYYCNAVWNNFISGRSYDYWGQGTQVTVSS | low polyreactivity
QVQLVESGGGLVQAGGSLRLSWAASGLIFVYNDMGWYRQAPGKEMELVAAIRWSSGRTYYADSVKGRFTISRDNAKNTVYLQMNSLKPEDTAVYYCAAKGVGPERGGYDYWGQGTQVTVSS | high polyreactivity
QVQLVESGGGLVQAGGSLRLSWAASGRILSANAMGWYRQAPGKERELVAAITYSGDNTYYADSVKGRFTISRDNAKNTVDVQMNSLKPEDTAVYYCAAVRYYAYLSSWRYDYWGQGTQVTVSS | low polyreactivity
QVQLVESGGGLVQAGGSLRLSWAASGRTLWYYTMGWYRQAPGKERELLAGITVSGGSTYYADSVKGRFTISRDNAKNTVYLQMNSLKPEDTAVYYCADGYYSTWKQASRYRYYYWGQGTQVTVSS | high polyreactivity
